This note sets out measurements from doi:10.1101/2025.07.12.664526 (bioRxiv, 2025).

Data set [1] concerns the target WalR T101M fused to SmBIT or LgBIT (split luciferase) (S. aureus ATCC29213) (UniProt Q7A8E1). The experiment in a line: split reporter.
In data set [2] the target is WalR, wild type, full-length, C-terminal 6xHis, phosphorylated by PknB^CYTO with ATP (S. aureus ATCC29213) (UniProt Q7A8E1). The experiment in a line: SEC-MALS. Background: Size exclusion chromatography separates by hydrodynamic size, large species first.
Data set [3] has as its target T1, WalR wild type fused to SmBIT or LgBIT (split luciferase) (S. aureus ATCC29213, UniProt Q7A8E1 1-233).
T1 sequence (looked up): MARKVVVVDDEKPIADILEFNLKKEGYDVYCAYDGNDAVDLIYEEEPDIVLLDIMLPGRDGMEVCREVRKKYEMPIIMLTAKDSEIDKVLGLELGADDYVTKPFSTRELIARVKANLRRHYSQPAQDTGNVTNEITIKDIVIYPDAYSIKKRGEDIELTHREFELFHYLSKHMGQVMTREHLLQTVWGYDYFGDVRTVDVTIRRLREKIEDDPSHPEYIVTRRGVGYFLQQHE
Kind of data set: split reporter.

Data set [4] concerns the molecule itself. Kind of data set: split reporter.

In data set [1], “WalR T101M fused to SmBIT or LgBIT (split luciferase) (from UniProt Q7A8E1 1-233) (natural protein)” yielded a peak luciferase signal in the wild type background of 4340 RLU, a peak luciferase signal in the ΔpknB background of 3650 RLU and a percent decrease of peak luciferase signal area against wild type WalR/WalR of 65.2%.

One may read the stoichiometry N as the number of molecules, sites or subunits per partner or assembly. Regarding “WalR, wild type, full-length, C-terminal 6xHis, phosphorylated by PknB^CYTO with ATP (from UniProt Q7A8E1 1-233) (natural protein)”, the stoichiometry N in data set [2] turned out to be 2.

B1: WalR T101M fused to SmBIT or LgBIT (split luciferase) (natural protein, S. aureus ATCC29213, UniProt Q7A8E1 1-233, looked up)
chain: MARKVVVVDDEKPIADILEFNLKKEGYDVYCAYDGNDAVDLIYEEEPDIVLLDIMLPGRDGMEVCREVRKKYEMPIIMLTAKDSEIDKVLGLELGADDYVMKPFSTRELIARVKANLRRHYSQPAQDTGNVTNEITIKDIVIYPDAYSIKKRGEDIELTHREFELFHYLSKHMGQVMTREHLLQTVWGYDYFGDVRTVDVTIRRLREKIEDDPSHPEYIVTRRGVGYFLQQHE
In the case of B1, the “percent decrease of peak area against wild type WalR/WalR” value in data set [3] turned out to be 56.5%.

B2: WalR T101S fused to SmBIT or LgBIT (split luciferase) (natural protein, S. aureus ATCC29213, UniProt Q7A8E1 1-233, looked up)
chain: MARKVVVVDDEKPIADILEFNLKKEGYDVYCAYDGNDAVDLIYEEEPDIVLLDIMLPGRDGMEVCREVRKKYEMPIIMLTAKDSEIDKVLGLELGADDYVSKPFSTRELIARVKANLRRHYSQPAQDTGNVTNEITIKDIVIYPDAYSIKKRGEDIELTHREFELFHYLSKHMGQVMTREHLLQTVWGYDYFGDVRTVDVTIRRLREKIEDDPSHPEYIVTRRGVGYFLQQHE
Take B2: the “percent decrease of peak area against wild type WalR/WalR” value in data set [4] came to 52.4%.

B3: WalR T101A fused to SmBIT or LgBIT (split luciferase) (natural protein, S. aureus ATCC29213, UniProt Q7A8E1 1-233, looked up)
chain: MARKVVVVDDEKPIADILEFNLKKEGYDVYCAYDGNDAVDLIYEEEPDIVLLDIMLPGRDGMEVCREVRKKYEMPIIMLTAKDSEIDKVLGLELGADDYVAKPFSTRELIARVKANLRRHYSQPAQDTGNVTNEITIKDIVIYPDAYSIKKRGEDIELTHREFELFHYLSKHMGQVMTREHLLQTVWGYDYFGDVRTVDVTIRRLREKIEDDPSHPEYIVTRRGVGYFLQQHE
For the molecule B3, the “percent decrease of peak area against wild type WalR/WalR” value in data set [4] worked out at 56.7%.
